Data reported in patent US20080200393A1, “Method and Composition For Treating Angiogenesis and For Preventing Cancer Progression and Metastasis Comprising a Prostate Secretory Protein (Psp94) Family Member” (Ambrillia Biopharma Inc., priority 2004, published 2008).
Where no end group is shown, it is not given here.

Target: T1, PDGF receptor (PDGFR) (Homo sapiens, UniProt P09619)
T1 construct: the PDGF receptor (PDGFR) in PASMC (pulmonary aortic smooth muscle cells); host or cells: PASMC (pulmonary aortic smooth muscle cells)
Assay: PDGF-induced PDGFR phosphorylation in PASMC
Assay type: cell-based
Procedure: Cell culture. Human umbilical vein endothelial cells (HUVEC) and pulmonary aortic smooth muscle cells (PASMC) were obtained from Clonetics and maintained in endothelial cell basal medium-2 (EBM-2; Clonetics) and smooth muscle medium-2 (SmGM-2; Clonetics), respectively. Cells were cultured at 37° C. under a humidified atmosphere containing 5% CO2. For experimental purposes, cells were plated in 8 100-mm plastic dishes at 5,000 cells/cm^2 and were grown to confluence before overnight serum starvation. Cells were treated with vehicle or with a PCK3145 derivative diluted in 0.1 N NaOH, and stimulated with 50-100 ng/ml VEGF or PDGF, with 10 ng/ml of bFGF (basic fibroblast growth factor) or with 1 μM S1P (sphingosine-1-phosphate).
Immunoprecipitation and immunoblotting procedures. After treatment, cells were washed once with phosphate-buffered saline (PBS) containing 1 mM sodium orthovanadate and were incubated in the same medium for 1 h at 4° C. […] The cells were then scraped from the culture dishes and the resulting lysates were clarified by centrifugation at 10,000 g for 10 min; Protein concentrations were determined using the micro bicinchoninic acid method (Pierce). […] The immunoreactive bands were quantified by scanning densitometry (Molecular Dynamics). […]

T1 sequence (P09619 33-1106): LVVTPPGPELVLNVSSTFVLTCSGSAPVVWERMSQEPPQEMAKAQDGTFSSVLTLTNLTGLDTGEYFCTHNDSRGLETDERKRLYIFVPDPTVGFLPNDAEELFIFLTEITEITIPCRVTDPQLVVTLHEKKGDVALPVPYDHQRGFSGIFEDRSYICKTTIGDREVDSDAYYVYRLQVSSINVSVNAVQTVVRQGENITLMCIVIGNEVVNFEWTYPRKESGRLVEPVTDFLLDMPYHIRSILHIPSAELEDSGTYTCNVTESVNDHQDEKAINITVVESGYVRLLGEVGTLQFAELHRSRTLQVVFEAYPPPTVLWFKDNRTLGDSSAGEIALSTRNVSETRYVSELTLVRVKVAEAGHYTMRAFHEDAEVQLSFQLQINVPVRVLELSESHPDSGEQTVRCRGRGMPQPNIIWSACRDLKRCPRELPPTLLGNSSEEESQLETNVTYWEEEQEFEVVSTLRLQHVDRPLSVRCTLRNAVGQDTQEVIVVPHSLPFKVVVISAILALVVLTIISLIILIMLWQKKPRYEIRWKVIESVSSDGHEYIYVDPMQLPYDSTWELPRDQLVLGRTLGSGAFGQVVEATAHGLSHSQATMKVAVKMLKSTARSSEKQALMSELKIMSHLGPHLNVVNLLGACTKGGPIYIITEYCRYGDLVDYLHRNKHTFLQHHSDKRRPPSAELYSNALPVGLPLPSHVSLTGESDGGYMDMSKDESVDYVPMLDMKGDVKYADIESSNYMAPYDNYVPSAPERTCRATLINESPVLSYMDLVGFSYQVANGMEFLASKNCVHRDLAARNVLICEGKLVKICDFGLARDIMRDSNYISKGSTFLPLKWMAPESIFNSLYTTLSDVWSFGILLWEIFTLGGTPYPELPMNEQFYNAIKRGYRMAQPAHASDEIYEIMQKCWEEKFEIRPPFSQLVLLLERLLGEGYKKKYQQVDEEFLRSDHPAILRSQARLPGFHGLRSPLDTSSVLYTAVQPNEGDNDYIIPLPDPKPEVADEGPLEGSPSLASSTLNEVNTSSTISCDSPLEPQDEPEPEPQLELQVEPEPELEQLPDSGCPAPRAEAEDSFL

PDGFR phosphorylation induced by PDGF: inhibition
Sequence: EWQTDNCETCTCYET (cysteine pairing not given here) [PCK3145 derivative, PCK3145 derivative with acetylaminomethyl groups on the three cysteines]
